Reference: US20170192014A1 (PDL BIOPHARMA, published 2017)
Ends that are not written are not given here. * marks the point of attachment. Biotin = O=C1N[C@H]2[C@H](CS[C@H]2CCCCC(=O)*)N1

What was measured:
[1] = biological target: T1, biotin conjugated CK18 peptide ^240PKSQDLAKI (human, also: biotin conjugated); assay: ECL assay, hybridoma supernatant on biotin peptide on streptavidin beads
T1 peptide: PKSQDLAKI
Description: (§1) Caspases 3 and 6 generated three CK18 protein fragments having the sequences M1-D238 (SEQ ID NO:4), A239-D397 and 5398-H430. A monoclonal antibody specific for the carboxy terminus of human caspase-cleaved cytokeratin CK18 protein fragment having amino acids M1-D238 (SEQ ID NO:4) was generated by immunizing mice with a short peptide sequence of ²²⁹[…] (SEQ ID NO:1) (designated as peptide P1 for the Examples). Mouse sera were screened for a positive response to peptide P1. Splenocytes from mice with a positive response were fused with myeloma cells and cell culture fluid from the resulting hybridomas screened against peptide P1. Supernatant from hybridoma cells producing antibody with a positive response to peptide P1 were further screened by an electrochemiluminescence (ECL) assay against biotin conjugated peptides ²³⁹[…] (SEQ ID NO:10), ²⁴⁰[…] (SEQ ID NO:11), ²²⁹[…] (SEQ ID NO:1) and ²²⁹[…] (SEQ ID NO:12), which were each bound to streptavidin coated paramagnetic beads. Peptides ²²⁹[…] (SEQ ID NO:1) and ²²⁹[…] (SEQ ID NO:12) represent the amino acid sequences A229-D238 and A229-V237 of cytokeratin 18 protein while peptides ²³⁹[…] (SEQ ID NO:10) and ²⁴⁰[…] (SEQ ID NO:11) represent the amino acid sequences A239-1248 and K240-1248 of cytokeratin 18.

[2] = biological target: T2, biotin conjugated CK18 peptide ^239APKSQDLAKI (A239-I248) (human, also: biotin conjugated); assay: as above
T2 peptide: APKSQDLAKI
Description: as §1

[3] = biological target: T3, biotin conjugated CK18 peptide ^229ASSGLTVEVD (A229-D238) (human); assay: immunoassay on biotin peptides on NeutrAvidin-coated 96-well plate
T3 construct: also called peptide P1
T3 peptide: Biotin-ASSGLTVEVD
Experimental: (§2) The specificity of monoclonal antibody 3C2 was also assessed in an immunoassay against the peptides ²²⁹[…] (SEQ ID NO:1), ²²⁹[…] (SEQ ID NO:12) and ³⁸⁸[…] (SEQ ID NO:13) (each conjugated with biotin at their amino-terminus), which were added to a 96-well microplate coated with NeutrAvidin® by Invitrogen™. Human cytokeratin 18 protein fragment A239-D397 was also produced by the action of caspase 3 during cellular apoptosis and ends in the sequence ³⁹⁴DALD (SEQ ID NO:9). These peptides were incubated with mAb 3C2, M30 antibody (Enzo Life Sciences®, ALX-804-590) or other unrelated mAbs.

[4] = biological target: T4, biotin conjugated CK18 peptide ^388EDFNLGDALD (human); assay: as above
T4 peptide: Biotin-EDFNLGDALD
Experimental: as §2

[5] = biological target: T5, biotin conjugated CK18 peptide ^229ASSGLTVEV (A229-V237) (human); assay: as above
T5 peptide: Biotin-ASSGLTVEV
Experimental: as §2

[6] = biological target: T6, recombinant human CK18 protein fragment B (rCK18fB) (human, UniProt P05783 1-238); assay: sandwich ECL assay, capture biotin-3C2 on streptavidin beads, detector TAG-C-04, in normal human serum
T6 construct: also called recombinant CK-18 fragment B protein
T6 sequence: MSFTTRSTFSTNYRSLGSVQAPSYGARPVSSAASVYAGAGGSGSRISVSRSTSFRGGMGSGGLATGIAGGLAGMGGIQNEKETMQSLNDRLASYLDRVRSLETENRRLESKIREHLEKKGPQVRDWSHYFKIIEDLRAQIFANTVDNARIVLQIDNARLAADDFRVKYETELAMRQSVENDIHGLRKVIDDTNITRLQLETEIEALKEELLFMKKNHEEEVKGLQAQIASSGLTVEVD
Experimental: A recombinant human CK18 protein fragment B (rCK18fB) was prepared using standard procedures. An immunoassay consisted of incubating 50 μL rCK18fB (0, 206, 617, 1852, 5557, 16667, 50,000 and 100,000 U/L) spiked into normal human serum with 50 μL of reaction mix consisting of biotinylated mAb 3C2/streptavidin coated paramagnetic beads and anti-CK18 TAG labeled antibody C-04 for 60 minutes at room temperature with shaking. The bead complex was washed twice, suspended in buffer and read on an ECL analyzer. The results shown in FIG. 6, a representative standard curve, indicate rCK18fB is detectable over a range of 0-100,000 U/L (1 U/L=1000 pg=0.037 pM).

[7] = biological target: T7, human CK18 protein fragment M1-D238 from apoptotic SK-BR3 cells (human, UniProt P05783 1-238); assay: Western blot
T7 construct: Endogenous fragment in the supernatant or lysate of SK-BR-3 cells induced to become apoptotic; also called fragment B; caspase-cleaved CK18 fragment
T7 sequence: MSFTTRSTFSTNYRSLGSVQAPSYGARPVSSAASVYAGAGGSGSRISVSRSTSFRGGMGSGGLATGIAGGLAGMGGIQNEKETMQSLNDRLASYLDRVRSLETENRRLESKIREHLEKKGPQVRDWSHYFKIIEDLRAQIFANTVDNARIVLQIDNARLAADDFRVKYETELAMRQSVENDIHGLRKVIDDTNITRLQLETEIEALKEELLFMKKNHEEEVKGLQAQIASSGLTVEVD
Experimental: (§3) FIG. 4 is a photographic reproduction of a Western Blot Analysis using the mAb 3C2 (Lane 1, marker proteins; Lane 2, blank; Lane 3, 1 μg recombinant full length CK18 protein (rCK18); Lane 4, 12 μL of SK-BR3 apoptotic cell supernatant; Lane 5, 12 μL of SK-BR3 cell supernatant). Proteins were run in a 14% Tris/Glycine gel. The concentrations for the test material were 1 μg of rCK18 and 12 μL of SK-BR-3 apoptotic supernatant and SK-BR-3 Cell Lysate. The proteins were run at 150 V constant until the dye front reached the end of the gel. The proteins were then transferred to nitrocellulose. The nitrocellulose was blocked and probed with the 3C2 mAb at 1 μg/mL for 60 minutes. The membrane was washed three times and probed with a goat anti-mouse IgG ALK for 30 minutes. The membrane was washed three times and developed with using a WesternBreeze® kit from Invitrogen™ (Cat # WB7104).

[8] = biological target: T8, full length recombinant cytokeratin 18 protein (rCK18) (human, UniProt P05783 1-430); assay: Western blot
T8 construct: The exact recombinant construct, including any tags, is not described; also called recombinant full length CK18 protein; full-length (untreated) CK18
T8 sequence: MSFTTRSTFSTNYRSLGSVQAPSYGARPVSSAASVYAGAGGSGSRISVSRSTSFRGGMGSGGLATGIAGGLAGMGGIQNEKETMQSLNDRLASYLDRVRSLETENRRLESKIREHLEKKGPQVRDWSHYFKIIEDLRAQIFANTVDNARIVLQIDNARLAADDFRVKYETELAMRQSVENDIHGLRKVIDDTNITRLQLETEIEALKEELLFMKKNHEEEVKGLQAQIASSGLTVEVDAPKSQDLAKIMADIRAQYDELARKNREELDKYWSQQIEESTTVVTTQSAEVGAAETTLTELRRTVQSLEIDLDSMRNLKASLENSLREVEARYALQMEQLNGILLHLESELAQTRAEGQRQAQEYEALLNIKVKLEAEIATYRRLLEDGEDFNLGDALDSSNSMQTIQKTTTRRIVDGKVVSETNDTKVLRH
Experimental: as §3

[9] = biological target: T9, full length CK18 from a cell extract of SK-BR-3 cells (human, UniProt P05783 1-430); assay: Western blot
T9 construct: Endogenous CK18 of the human breast cancer cell line SK-BR-3, seen on a Western blot; also called SK-BR3 cell supernatant (lane 5)
T9 sequence: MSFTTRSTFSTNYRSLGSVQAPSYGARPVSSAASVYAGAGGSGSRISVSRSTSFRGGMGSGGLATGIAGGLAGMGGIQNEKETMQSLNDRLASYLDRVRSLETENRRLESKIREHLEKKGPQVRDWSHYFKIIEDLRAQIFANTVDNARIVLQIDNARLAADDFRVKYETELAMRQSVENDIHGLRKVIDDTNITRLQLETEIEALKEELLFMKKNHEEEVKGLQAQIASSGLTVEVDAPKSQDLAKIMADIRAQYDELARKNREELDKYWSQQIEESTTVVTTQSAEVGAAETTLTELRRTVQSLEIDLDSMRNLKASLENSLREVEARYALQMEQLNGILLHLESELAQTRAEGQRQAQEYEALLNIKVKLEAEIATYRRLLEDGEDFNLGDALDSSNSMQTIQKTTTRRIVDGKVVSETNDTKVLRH
Experimental: as §3

- binding result [1]: no binding
- binding result [2]: no binding
- binding result [3]: binds
- binding result [4]: no binding
- binding result [5]: no binding
- binding result [6]: binds
- binding result [7]: binds
- binding result [9]: no binding
B1: monoclonal antibody 3C2 (antibody, V domains shown)
VH: DVQLVESGGGLVQPGGSRKLSCAASGFTFSSFGMHWVRQAPEKGLEWVAYINGGSTIIYYADTVKGRFTVSRDNPKNTLFLQMTSLRSDDTAMYFCVRRTPTAAGGAMDYWGQGTSVTVSS
VL: NIMVTQSPSSLAVSAGEKVTMTCKSSQSLFYSSNQKNYLAWFQQKPGQSPKLLIYWASTRESGVADRFTGSGYGTDFTLTISSVQAEDLAVYYCQQYLSSWTFGGGTKVEIK
notes: Mouse hybridoma monoclonal antibody, detected with goat anti-mouse IgG; also called mAb 3C2; anti-VEVD mAb
- binding result [8]: no binding (tested: 3C2 mAb at 1 µg/mL; 1 µg of rCK18)
